The record followed here is US20120077731A1 (Ablynx, published 2012).

Where “and” joins values, the source holds several entries; their conditions need not be identical. Equal entries are not always repeated.

The chains are these.
B1: Cyno IL-6R (receptor, cynomolgus monkey)
chain: EVARGVLTSLPGDSVTLTCPGGEPEDNATVHWVLRKPAEGSHLSRWAGVGRRLLLRSVQLHDSGNYSCYRAGRPAGTVHLLVDVPPEEPQLSCFRKSPLSNVVCEWGPRSTPSPTTKAVLLVRKFQNSPAEDFQEPCQYSQESQKFSCQLAVPEGDSSFYIVSMCVASSVGSKLSKTQTFQGCGILQPDPPANITVTAVARNPRWLSVTWQDPHSWNSSFYRLRFELRYRAERSKTFTTWMVKDLQHHCVIHDAWSGLRHVVQLRAQEEFGQGEWSEWSPEAMGTPWTESRSPPAENEVSTPTQAPTTNKDDDNILSGDSANATSLPVQDSSSVPLP
notes: also called cynomolgus monkey IL-6R; recombinant cyno sIL-6R

One test has as its target T1, PMP20A11.
T1 construct: also called IL6R20A11; IL6R300; not shown: c-myc and (His)6 tags
Kind of test: competition ELISA: IL6R20A11 (0.4 nM) pre-incubated with a series of recombinant sIL-6R; free IL6R20A11 captured on biotinylated human sIL-6R on neutravidin. Background: An ELISA detects its analyte on a solid surface through an enzyme-linked reagent.

Test [1] deals with T2, Human soluble IL-6R (human, UniProt P08887 20-358).
T2 construct: Soluble recombinant form; biotinylated in some assays; also called hIL-6R; human IL-6R
T2 sequence (looked up): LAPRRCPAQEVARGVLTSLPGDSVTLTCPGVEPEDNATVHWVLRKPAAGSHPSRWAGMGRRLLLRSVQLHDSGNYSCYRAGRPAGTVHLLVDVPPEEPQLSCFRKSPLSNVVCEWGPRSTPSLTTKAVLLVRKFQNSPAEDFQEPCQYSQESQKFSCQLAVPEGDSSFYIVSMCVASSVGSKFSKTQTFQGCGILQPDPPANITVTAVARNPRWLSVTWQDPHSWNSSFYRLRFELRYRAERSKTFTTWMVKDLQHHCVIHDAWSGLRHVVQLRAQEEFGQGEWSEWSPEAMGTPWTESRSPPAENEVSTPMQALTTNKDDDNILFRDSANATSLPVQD
Description: competition for IL-6R, competitor reference Fab, summary table C-13.

In test [2] the target is T2, Human soluble IL-6R. Description: Biacore off-rate, periplasmic extract. (In general: SPR reads the build-up and loss of mass on a sensor chip optically.)
Test [3] has as its target T2, Human soluble IL-6R. Description: Biacore, binding to IL-6R (parent value).
The target in test [4] is T2, Human soluble IL-6R. Description: summary table C-13 of Nanobody characteristics, Kd on IL-6R.
Description: (§1) Nanobodies were injected at 5 different concentrations between 1 and 50 nM. Flow rate was 45 μl/min in all experiments. Association and dissociation phase were 3 and 10 min, respectively. The chip was regenerated using Glycine/HCl pH 1.5.
For test [5], the target named is T2, Human soluble IL-6R. Description: SPR Biacore 3000, IL-6R amine-coupled to CM5.
Description: as §1
Test [6] addresses T3, Human membrane IL-6R on cells (human, UniProt P08887 20-468).
T3 sequence (looked up): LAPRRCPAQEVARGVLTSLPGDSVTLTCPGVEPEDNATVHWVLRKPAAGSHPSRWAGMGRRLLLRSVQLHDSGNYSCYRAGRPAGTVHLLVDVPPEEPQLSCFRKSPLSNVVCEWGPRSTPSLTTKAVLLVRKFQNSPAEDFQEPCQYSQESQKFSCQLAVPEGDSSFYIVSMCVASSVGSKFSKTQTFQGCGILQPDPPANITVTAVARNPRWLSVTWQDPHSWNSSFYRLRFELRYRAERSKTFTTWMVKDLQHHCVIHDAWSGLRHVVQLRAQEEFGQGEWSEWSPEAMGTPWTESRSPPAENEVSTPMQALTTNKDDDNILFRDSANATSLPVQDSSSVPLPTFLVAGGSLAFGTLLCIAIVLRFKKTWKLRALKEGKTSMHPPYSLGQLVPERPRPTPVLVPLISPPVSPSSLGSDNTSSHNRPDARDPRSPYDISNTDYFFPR
Kind of test: cell-based or functional assay.

The target in test [7] is T2, Human soluble IL-6R. Kind of test: Alphascreen IL-6/IL-6R competition with purified Nanobody; row EC50 of the table, axis [inhibitor], M; blocked ligand IL-6. Background: Alpha assays give light when donor and acceptor beads are brought close together.
The target of test [8] is T2, Human soluble IL-6R. Description: Alphascreen IL-6/IL-6R competition (IL-6R 0.3 nM, bio-IL-6 3 nM); row EC50 of the fit table, axis [competitor], M; blocked ligand IL-6.
Test [9] deals with T3, Human membrane IL-6R on cells. Kind of test: cell-based or functional assay. The source holds these as a separate data set.
In test [10] the target is T2, Human soluble IL-6R. Kind of test: Biacore off-rate, periplasmic extracts.
Test [11] concerns the target T3, Human membrane IL-6R on cells. Description: cell-based or functional assay. The source holds these as a separate data set.
In test [12] the target is T2, Human soluble IL-6R. Kind of test: Alphascreen, inhibition of bio-IL-6 binding to IL-6R.
Description: (§2) Finally streptavidin donor beads were added and after 1 hour incubator the plate was read on the Envision microplate reader.
Test [13] deals with T2, Human soluble IL-6R. Kind of test: inhibition of the IL-6/IL-6R interaction, summary table C-13.
Description: as §2
Test [14] concerns the target T2, Human soluble IL-6R. Kind of test: Alphascreen, 100 nM Nanobody, 0.4 nM bio-IL-6R; competitor: reference Fab.
The target in test [15] is T3, Human membrane IL-6R on cells. Description: cell-based or functional assay. This is another data set of the same source.
The next test deals with T4, Mouse IL-6R (mouse, UniProt P22272 20-364, limits assumed).
T4 construct: also called mouse sIL-6R
T4 sequence (looked up): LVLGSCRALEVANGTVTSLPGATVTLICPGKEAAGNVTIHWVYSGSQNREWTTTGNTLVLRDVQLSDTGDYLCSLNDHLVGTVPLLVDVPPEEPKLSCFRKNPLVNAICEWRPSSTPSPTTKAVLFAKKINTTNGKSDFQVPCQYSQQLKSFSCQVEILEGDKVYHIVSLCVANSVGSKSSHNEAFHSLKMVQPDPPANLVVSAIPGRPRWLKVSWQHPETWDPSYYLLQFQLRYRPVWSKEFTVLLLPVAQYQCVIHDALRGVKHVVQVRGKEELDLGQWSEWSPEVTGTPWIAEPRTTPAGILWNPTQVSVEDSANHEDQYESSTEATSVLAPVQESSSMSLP
Kind of test: ELISA: plate coated with 1 µg/ml mouse IL-6R, 500 nM Nanobody, anti-myc + anti-mouse-HRP.

The target of test [16] is T2, Human soluble IL-6R. Description: Alphascreen IL-6/IL-6R competition (IL-6R 0.3 nM, bio-IL-6 3 nM); row EC50 of the fit table, axis [competitor], M; blocked ligand IL-6. This is another data set of the same source.
The test “Cyno IL-6R” addresses B1. Description: SPR Biacore 3000, cyno IL-6R amine-coupled to CM5.
Description: Remaining reactive groups were inactivated. […] Each sample was injected for 4 min at a flow rate of 45 μl/min to allow for binding to chip-bound antigen. Next, binding buffer without Nanobody was sent over the chip at the same flow rate to allow for dissociation of bound Nanobody.

Description for Mouse IL-6R: Detection was performed with anti-myc and anti-mouse-HRP as first and second antibody respectively.

Take B1: the “IC50 (read off the curve)” value with PMP20A11 was ~3 ng/mL.

B2: IL6R13 (VHH)
VHH: EVQLVESGGGLVQPGGSLRLSCAASGFTFDDYGMSWVRQAPGRATEWVSAISWNGNNTYYTESMKGRFTISRDNAKNTVYLQMNSLKPEDTAVYYCVKGSTAIVGVPPTYPDEYDYWGQGTQVTVSS
notes: also called PMP35H4; not shown: C-terminal c-myc and (His)6 tags
As a reminder, the koff is the rate constant with which the complex falls apart. A higher koff goes with fast dissociation. Broadly, the Kd is the concentration at which binding is half-saturated. A word on the kon: it is the second-order rate constant of association. Low values mean slow association, high ones fast association. As a reminder, the IC50 is the concentration that gives 50% inhibition. Low readings indicate greater potency, high ones weaker potency. Turning to B2, in the test with Human soluble IL-6R [1], the “Ref Fab competition (%)” value was 25%. For the same molecule, the koff is 0.000178 s⁻¹ with Human soluble IL-6R [2]; 0.000121 s⁻¹ and 0.000109 s⁻¹ and 0.000178 s⁻¹ in the test with Human soluble IL-6R [5]; 0.00021 s⁻¹ in the test with Human soluble IL-6R [10]. The Kd with Human soluble IL-6R [3] was 0.7 nM; with Human soluble IL-6R [4] it was 0.5 nM; with Human soluble IL-6R [5] it was 0.5 nM and 0.8 nM. The kon with Human soluble IL-6R [5] was 231000 M⁻¹ s⁻¹ and 137000 M⁻¹ s⁻¹. In test [6], the “IC50 (nM) XG-1” value was found to be 1.4 nM. Further, the IC50 with Human soluble IL-6R [7] was determined as 0.0505 nM; in the test with Human soluble IL-6R [8], 0.0644 nM; in the test with Human soluble IL-6R [12], 0.0477 nM; with Human soluble IL-6R [13] it was 0.05 nM. In addition, the “IC50 (nM), TF1 cell proliferation” value in test [9] turned out to be 5.2 nM. Further, the “IC50 values (nM), XG-1 assay” value in test [11] worked out at 1.4 nM. Further, in the test with Human soluble IL-6R [14], the “Residual reference-Fab binding to IL-6R (%)” value came out at 25%. Besides, in test [15], the “IC50 (nM) + HSA, XG-1 cell proliferation” value came out at 1.3 nM. For the same molecule, the “IC50 (nM), XG-1 cell proliferation” value in test [15] came to 1.4 nM. Also, the binding result with Mouse IL-6R is “no binding (tested: 500 nM)”.

B3: IL6R03 (VHH)
VHH: EVQLVESGGGLVQAGGSLRLSCAASGSIFKVNAMGWYRQAPGKQRELVAGIISGGSTNYADSVKGRLTISRDNAKNTVYLQMNSLKPEDTAVYYCSFVTTNSDYDLGRDYWGQGTQVTVSS
notes: also called PMP31A4; not shown: C-terminal c-myc and (His)6 tags
As for B3, the “Ref Fab competition (%)” value with Human soluble IL-6R [1] came out at 5%. Besides, the koff in the test with Human soluble IL-6R [2] was 0.0016 s⁻¹; in the test with Human soluble IL-6R [5], 0.00147 s⁻¹ and 0.0016 s⁻¹; in the test with Cyno IL-6R it was 0.00164 s⁻¹. In addition, the Kd with Human soluble IL-6R [3] came to 3 nM; in the test with Human soluble IL-6R [4] it was 3 nM; in the test with Human soluble IL-6R [5], 3 nM; with Cyno IL-6R it was 4.4 nM. For the same molecule, the IC50 with Human soluble IL-6R [16] was determined as 0.187 nM; in the test with Human soluble IL-6R [7], 0.105 nM; with Human soluble IL-6R [12], 0.716 nM; with Human soluble IL-6R [13], 0.72 nM. In addition, the kon was determined as 484000 M⁻¹ s⁻¹ with Human soluble IL-6R [5] and 370000 M⁻¹ s⁻¹ with Cyno IL-6R. Also, the “IC50 (nM) XG-1” value in test [6] was 16.2 nM. For the same molecule, the “IC50 (nM), TF1 cell proliferation” value in test [9] is 62.1 nM. The “IC50 values (nM), XG-1 assay” value in [11] was 17 nM. Besides, the “Residual reference-Fab binding to IL-6R (%)” value with Human soluble IL-6R [14] was 5%. In addition, the “IC50 (nM) + HSA, XG-1 cell proliferation” value in [15] was 17.5 nM. In addition, the “IC50 (nM), XG-1 cell proliferation” value in test [15] came out at 16.2 nM. The binding result with Mouse IL-6R is “no binding (tested: 500 nM)”.
